Data reported in patent US20220162306A1.
“And” between values parts separate entries of the source, which are not always exact repeats. Identical values can stand only once.

How the values were obtained:
[1] = target: receptors on circulating human B cells (CD32B and CD79B, the two targets of PRV-3279); experiment: receptor occupancy on circulating B cells of dosed healthy subjects (FIG. 3B)
[2] = target: CD32B (Fc gamma receptor IIb) (human) (UniProt P31994); experiment: cell-based or functional assay
Chain of CD32B (Fc gamma receptor IIb) (human) (P31994 43-310): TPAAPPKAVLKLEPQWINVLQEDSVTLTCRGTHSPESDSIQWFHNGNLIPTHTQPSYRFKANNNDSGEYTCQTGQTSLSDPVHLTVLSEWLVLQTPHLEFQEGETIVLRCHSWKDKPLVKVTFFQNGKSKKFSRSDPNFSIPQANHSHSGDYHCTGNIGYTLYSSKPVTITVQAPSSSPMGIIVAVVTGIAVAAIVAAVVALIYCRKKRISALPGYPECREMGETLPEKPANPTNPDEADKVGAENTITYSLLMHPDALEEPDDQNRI

[3] = target: receptors on circulating human B cells (CD32B and CD79B, the two targets of PRV-3279)

Substance: PRV-3279, a humanized CD32B×CD79B DART® protein (bispecific antibody)
- percent of receptors occupied [1]: 70% and 75%
- inhibition of anti-human IgM stimulated B-cell proliferation (3H-thymidine incorporation), 100 nM PRV-3279, B cells of SLE patients with active or inactive disease [2]: 60%
- inhibition of anti-human IgM stimulated B-cell proliferation (3H-thymidine incorporation), 100 nM PRV-3279, B cells of normal healthy volunteers and SLE patients [2]: 60%
- percent of available CD19+ B cells bound [3]: > 85%
- receptor occupancy [3]: > 50%
